{"source": "paper PMC5019122", "binders": {"B1": {"name": "MutHGLL121 (fully mature PGT121 IgH with predicted germline IgL) (antibody, V domains shown)", "VH": "QMQLQESGPGLVKPSETLSLTCSVSGASISDSYWSWIRRSPGKGLEWIGYVHKSGDTNYSPSLKSRVNLSLDTSKNQVSLSLVAATAADSGKYYCARTLHGRRIYGIVAFNEWFTYFYMDVWGNGTQVTVSS", "VL": "SYVLTQPPSVSVAPGQTARITCGGNNIGSKSVHWYQQKPGQAPVLVVYDDSDRPSGIPERFSGSNSGNTATLTISRVEAGDEADYYCQVWDSSSDHPWVFGGGTKLTVL"}}, "biological_target": "BG505-10MUT (HIV-1 (isolate BG505))", "experiment": "SPR", "data": [{"binder": "B1", "values": [{"measurement": "Kd", "result": 47, "unit": "µM"}]}]}
